T1: IL-17F homodimer (crystallised form: tag cleaved, lysine-methylated) (human), Q96PD4
T1 chain: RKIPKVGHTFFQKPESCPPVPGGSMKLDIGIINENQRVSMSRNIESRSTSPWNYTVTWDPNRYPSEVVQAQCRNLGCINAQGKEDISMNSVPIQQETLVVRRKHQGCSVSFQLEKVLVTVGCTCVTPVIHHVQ

B1: IL-17RC extracellular domain, soluble (without BirA ligase tag) (receptor)
chain: LERLVGPQDATHCSPVSLEPWGDEERLRVQFLAQQSLSLAPVTAATARTALSGLSGADGRREERGRGKSWVCLSLGGSGNTEPQKKGLSCRLWDSDILCLPGDIVPAPGPVLAPTHLQTELVLRCQKETDCDLCLRVAVHLAVHGHWEEPEDEEKFGGAADSGVEEPRNASLQAQVVLSFQAYPTARCVLLEVQVPAALVQFGQSVGSVVYDCFEAALGSEVRIWSYTQPRYEKELNHTQQLPDCRGLEVWNSIPSCWALPWLNVSADGDNVHLVLNVSEEQHFGLSLYWNQVQGPPKPRWHKNLTGPQIITLNHTDLVPCLCIQVWPLEPDSVRTNICPFREDPRAHQNLWQAARLQLLTLQSWLLDAPCSLPAEAALCWRAPGGDPCQPLVPPLSWENVTVDKVLEFPLLKGHPNLCVQVNSSEKLQLQECLWADSLGPLKDDVLLLETRGPQDNRSLCALEPSGCTSLPSKASTRAARLGEYLLQDLQSGQCLQLWDDDLGALWACPMDKYIHKR
B2: IL-17F homodimer (crystallised form: tag cleaved, lysine-methylated), Q96PD4 31-163 (ligand)
chain: T1 chain
modifications: here or on the partner: reductive lysine methylation of the complex; reductive lysine methylation of the complex

How the values were obtained:
[1] = biological target: IL-17F homodimer (for binding experiments) (human) (UniProt Q96PD4); assay: SEC
[2] = biological target: IL-17RB-IL-25 complex, pre-assembled on the SPR chip (UniProt Q9NRM6); assay: SPR
UniProt Q9NRM6, sequence (Q9NRM6 18-292, chain 1 of 2): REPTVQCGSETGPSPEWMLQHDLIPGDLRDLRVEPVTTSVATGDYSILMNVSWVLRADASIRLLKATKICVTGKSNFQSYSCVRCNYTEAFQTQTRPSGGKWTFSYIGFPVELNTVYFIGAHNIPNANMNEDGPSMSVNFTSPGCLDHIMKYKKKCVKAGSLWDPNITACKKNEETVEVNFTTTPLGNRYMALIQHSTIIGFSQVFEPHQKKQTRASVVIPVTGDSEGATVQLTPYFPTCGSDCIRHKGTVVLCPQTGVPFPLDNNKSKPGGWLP
UniProt Q9NRM6, sequence (Q9H293 33-177, chain 2 of 2, further chain): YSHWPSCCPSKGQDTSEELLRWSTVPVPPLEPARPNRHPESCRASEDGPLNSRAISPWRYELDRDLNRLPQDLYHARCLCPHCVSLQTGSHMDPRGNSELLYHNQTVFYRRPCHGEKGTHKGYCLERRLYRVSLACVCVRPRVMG

[3] = biological target: IL-17RC-IL-17A complex, pre-assembled on the SPR chip (UniProt Q8NAC3); assay: SPR
[4] = biological target: IL-17RC-IL-17F complex, pre-assembled on the SPR chip (UniProt Q8NAC3); assay: SPR
[5] = biological target: IL-17RA extracellular domain, C-terminally biotinylated (human) (UniProt Q96F46); assay: SPR
[6] = biological target: IL-17RC extracellular domain, C-terminally biotinylated (UniProt Q8NAC3); assay: SPR
[7] = biological target: T1, IL-17F homodimer (crystallised form: …); assay: SDS-PAGE; settings: remark: other sources report otherwise
[8] = biological target: T1, IL-17F homodimer (crystallised form: …); assay: crystal structure; settings: remark: other sources report otherwise

| Molecule | Kd [3] [µM] | Kd [5] [nM] | Kd [6] [nM] | other results |
| --- | --- | --- | --- | --- |
| IL-17RA extracellular domain, soluble (without BirA ligase tag) (receptor) | 0.162 |  |  | stoichiometry N (receptor per IL-17 dimer) [1]: 1; stoichiometry N (receptors per IL-17 dimer) [1]: 2; Kd [2]: 14.1 µM; Kd [4]: 23.8 µM |
| IL-17F homodimer (for binding experiments) (from UniProt Q96PD4 31-163) (ligand) |  | 292 | 4.4 |  |
| IL-17A homodimer (from UniProt Q16552 24-155) (ligand) |  | 2.8 | 1.2 |  |
| B1 | 8 |  |  |  |
| B2 |  |  |  | stoichiometry N [7]: 2; stoichiometry N [8]: 2 |

From publication PMC2783927
